The results in this text go back to doi:10.1101/2021.07.17.452491 (bioRxiv, 2021).

One may read the Kd as the constant that tells how readily two partners part at equilibrium. For orientation: IC50 means the concentration that gives 50% inhibition. High values mean lower potency, low ones higher potency. The term stoichiometry N denotes a count of units in the complex or per binding partner.

Assay [1] concerns the target T1, U-STAT1 (purified full-length unphosphorylated STAT1) (UniProt P42224 1-750).
T1 construct: also called Full-length STAT1
T1 sequence (looked up): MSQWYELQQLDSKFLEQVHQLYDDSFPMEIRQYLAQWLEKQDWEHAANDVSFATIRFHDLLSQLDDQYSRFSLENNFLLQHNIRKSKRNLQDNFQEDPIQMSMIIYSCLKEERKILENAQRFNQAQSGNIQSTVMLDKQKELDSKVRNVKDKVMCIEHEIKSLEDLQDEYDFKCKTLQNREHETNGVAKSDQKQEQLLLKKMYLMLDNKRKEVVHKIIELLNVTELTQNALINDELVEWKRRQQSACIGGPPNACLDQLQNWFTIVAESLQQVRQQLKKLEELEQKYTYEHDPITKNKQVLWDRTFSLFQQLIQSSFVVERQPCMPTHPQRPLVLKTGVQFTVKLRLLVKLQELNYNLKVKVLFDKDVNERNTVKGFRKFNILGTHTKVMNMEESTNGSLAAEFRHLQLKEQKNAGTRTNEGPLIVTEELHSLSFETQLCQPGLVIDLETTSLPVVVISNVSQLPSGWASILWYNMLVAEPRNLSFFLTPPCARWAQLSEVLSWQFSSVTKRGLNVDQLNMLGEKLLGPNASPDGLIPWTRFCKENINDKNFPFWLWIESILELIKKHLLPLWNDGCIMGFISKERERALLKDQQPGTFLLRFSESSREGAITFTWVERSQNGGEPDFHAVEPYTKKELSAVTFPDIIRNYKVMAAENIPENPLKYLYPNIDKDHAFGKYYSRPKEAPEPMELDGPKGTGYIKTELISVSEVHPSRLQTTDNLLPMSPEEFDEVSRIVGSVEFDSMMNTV
The experiment in a line: ITC. The following applies: both partners purified.

In assay [2] the target is T1, U-STAT1 (purified full-length …). The experiment in a line: fluorescence polarisation. The following applies: both partners purified. (In general: In fluorescence polarisation assays a small probe gives low polarisation when free and higher when bound to something large.)

In the case of YDKPH (also called pYDKPH; pIFNGR 5-mer) [pIFNGR1 5-mer peptide], binding in assay [1] was characterised by a dissociation constant (Kd) of 7600 nM.
MWSVFIHGHDGSNKGSKTYTS (domain or fragment) [GB1-018^T2] yielded a half-maximal inhibitory concentration (IC50) in assay [2] of 930 nM. Besides, in assay [1], the Kd stood at 235 nM.

B1: GB1-018 (natural protein)
chain: MSSKGGSSGGMWSVFIHGHDGSNKGSKTYTSGGGGMWGGGSSSGVKSGVNGGVKSGTGKI
For B1, half-maximal inhibition in assay [2] (IC50) required 1260 nM. Besides, in assay [1], the Kd worked out at 291 nM and the “stoichiometry N” value is 1.02.
In the case of MWSVFIHGHDGSNKGSK (domain or fragment) [GB1-018^T3], the half-inhibitory concentration (IC50) in assay [2] worked out at 17800 nM. The Kd in assay [1] is above 10000 nM.
